# Data as given in the nanobody polyreactivity screen of Harvey et al. (2022).
# Experiment: yeast display, Sf9 membrane polyspecificity reagent, FACS + sequencing; frameworks hold sequencing errors
# In short: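 Galactose induction of a Saccharomyces cerevisiae BJ5465 synthetic nanobody display library ran 36–48 hours. The cells were then stained for 1 hour at 4 °C with 10% biotinylated, detergent-solubilized Sf9 membrane reagent, pulled down on streptavidin microbeads and FACS-sorted into low and high (top ~1%) gates on expression and reagent-binding fluorescence. Labels for polyreactivity follow the gate of origin.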
row,Sequence,polyreactivity (PSR sort gate)
1,QVQLVESGGGLVQAGGSLRLSCAASGRTFLWNAMGWSRPAPGKERELVAAITSGGRTTYADSVKGRFTISRDNAKNTVYLQMNSLKPEDTAVYYCAAVSANQDFDYWGQGTQVTVSS,high polyreactivity
2,QVQLVESGGGLVQAGGSLRLSCAASGRTFLWNAMGWYRQAPGKERELVAAIRGGTITYYADSVKGRFTISRDNAKNTVYLQMNSLKPEDTAVYYCAATSARGQYYWYCFNGYPYSEFGYWGQGTQVTVSS,low polyreactivity
3,QVQLVESGGGLVQAGGSLRLSCAASGRTFLWNAMGWYRQAPGKERELVAAISISGGNTNYADSVKGRFTISRDNAKNTVYLQMNSLKPEDTAVYYCNADPRAEPGDWSYEMDYWGQGTQVTVSS,low polyreactivity
4,QVQLVESGGGLVQAGGSLRLSCAASGRTFLWYAKGWYRQAPGKEMELVATITSGDSTIYADSVKGRFTISRDNEKNTVYLQMNSLKPVDTAVYYCAAGYYYYLRDHDYWGQGTQVTVSS,low polyreactivity
5,QVQLVESGGGLVQAGGSLRLSCAASGRTFLYNAMGWYRQAPGKERELVAAIRWSGGTTYYADSVKGRFTISRDNAKNTVYLQMNSLKPEDTAVYYCAARWGPYYGGVRYGYWGQGTQVTVSS,high polyreactivity
6,QVQLVESGGGLVQAGGSLRLSCAASGRTFLYVMGWYRQAPGKERELVAAISRGGSTSYADSVKGRFTISRDNAKNTVYLQMNSLKPEDTAVYYCAATNYWRDGYWGQGTQVTVSS,high polyreactivity
7,QVQLVESGGGLVQAGGSLRLSCAASGRTFMRYAMGWYRQAPGKERELVAAISRGGGRTYYADSVKGRFTISRDNAKNTVYLQMNSLKPEDTAVYYCAADLSPEYDYWGQGTQVTVSS,high polyreactivity
8,QVQLVESGGGLVQAGGSLRLSCAASGRTFNAYAMGWYRQAPGKERELVAAITWSGGSTYYAHSVKGRFTISRDNAKNTVYLQMNSLKPEDTAVYYCAARSFTNIRSVSSPYRYYYWGQGTQVTVSS,high polyreactivity
9,QVQLVESGGGLVQAGGSLRLSCAASGRTFNCYAMGWYRQAPGKERELVAAISNGGNTNYADSVKGRFTISRDNAKNTVYLQMNSLKPEDTAVYYCAARATPAFSRRGYYWGQGTQVTVSS,high polyreactivity
10,QVQLVESGGGLVQAGGSLRLSCAASGRTFNDYAMGWYRQATGKERELVAGITWRGGSTYYADSVKGRFTISRDNAKNTVYLQMNSLKPEDTAVYYCNAVPRRGYSRRDYWGQGTQVTVSS,high polyreactivity
11,QVQLVESGGGLVQAGGSLRLSCAASGRTFNIYAMGWYRQEPGKERELVAAITNNGGRTYYADSVKGRFTISRDNAKNTVYLQMNSLKPEDTAVYYCAAASPWRYGFEYWGQGTQVTVSS,high polyreactivity
12,QVQLVESGGGLVQAGGSLRLSCAASGRTFNKYAMGWYRQAPGKERELVAAISTRGGSTYYADSVKGRFTISRDNAKNNVYLQMNSLKPEDTAVYYCAARLTTVGQGFDYWGQGTKVTVSS,high polyreactivity
13,QVQLVESGGGLVQAGGSLRLSCAASGRTFNPYVMGWYRQAPGKERELVARIRGSGTSTYYADSVKGRFTISRDNAKNTVYLQMNSLKPEDTAVYYCAAAQSKYSFYWGDYYYWGQGTQVTVSS,high polyreactivity
14,QVQLVESGGGLVQAGGSLRLSCAASGRTFNQYAMGWYRQAPGKVRELVAAISRPTGRTYYADSVKGRFTISRDNAKNTVYLQMNSLKPEDTAVYYCAKADNRSPVDNGFDYWGQVTQVTVSS,high polyreactivity
15,QVQLVESGGGLVQAGGSLRLSCAASGRTFNRYAMGWYRQAPGKERELVAVITSDGRTNYADSVKGRFTISRDNAKNTVYLQMNSLKPEDSAVYYCNKRSALSFVYDFDYWGQGTQVTVSS,low polyreactivity
16,QVQLVESGGGLVQAGGSLRLSCAASGRTFNSYAMGWYRQAPGKERELVAGITGTGGSTYYADSVKGRFTISRDNAKNTVYLQMNSLKPEDTAVYYCNALRRCQRYWDPYGYDYWGQGTQVTVSS,high polyreactivity
17,QVQLVESGGGLVQAGGSLRLSCAASGRTFNTYAMGWYRQAPGKEREFVAAIRYSGDRTNYADSVKGRFTISRDNAKNTVYLQMNSLKPEDTAVYYCAAVNYFPWWSFEYWGQGTQVTVSS,low polyreactivity
18,QVQLVESGGGLVQAGGSLRLSCAASGRTFNTYAMGWYRQAPGKERELVAAISSGRRTYYADSVKGRFTISRDNAKNTVYLQMNSLKPEDTAVYYCAKRGRYSYKYDYWGQGTQVTVSS,high polyreactivity
19,QVQLVESGGGLVQAGGSLRLSCAASGRTFNTYAMGWYRQAPGKERELVADISVSGGRTYYADSVKGRFTISRDNAKNTVYLQMNSLKPEDNAVYYCAKRIRYNWTFDYWGQGTQVTVSS,low polyreactivity
20,QVQLVESGGGLVQAGGSLRLSCAASGRTFNVNAMGWYRQAPGKERELVASITWSDGSTYYADSVKGRFTISRDNAKNTVYLQMNSLKPEDTAVYYCNVTYGLESSYPRDDYWGQGTQVTVSS,low polyreactivity
21,QVQLVESGGGLVQAGGSLRLSCAASGRTFNVNVMGWYRQAPGKERELVAAIRYNGGSTYADSVKGRFTISRDNAKNTVYLQMNSLKPEDTAVYYCNADTFFPFEHGMDYWGQGTQVTVSS,low polyreactivity
22,QVQLVESGGGLVQAGGSLRLSCAASGRTFNVYAMGWYRQAPGKERELVAAISIGGRTNYADSVKGRFTISRDNAKNTVYLQMNSLKPEDTAVYYCAADTRRKYGGMYYWGQGTQVTVSS,high polyreactivity

row,Sequence,polyreactivity (PSR sort gate)
1,QVQLVESGGGLVQAGGSLRLSCAASGRTFNWYAMGWYRQAPGKEWELVAAISGGGGSTYYADSVKGRFTISRDNAKNTVYLQMNSLKPEDTAVYYCAADVEGWTVESDVYRVGYDYWGQGTQVTVSS,low polyreactivity
2,QVQLVESGGGLVQAGGSLRLSCAASGRTFNYNSMGWYRQAPGKERELVAAISATGGTTYYADSVKGRFTISRDNAKNTVYLQMNSLKPEDTAVYYCAADTPPYYAYWDVSFEYYYWGQGTQVTVSS,low polyreactivity
3,QVQLVESGGGLVQAGGSLRLSCAASGRTFNYYAMGWYRPAPGKERELVAAISGSGGRTYYADSVKGRFTISRDNAKNNVYLQMNSLKPVDTAVYYCNADVGKYPYAHTYWARRYYYWGQGTQVTVSS,high polyreactivity
4,QVQLVESGGGLVQAGGSLRLSCAASGRTFPAYAMGWYRQAPGKERELVAAISRGGSTYYADSVKGRFTISRDNAKNTVYLQMNSLKPEDTAVYYCAARYSYYRQGDSWYNYNYWGQGTQVTVSS,high polyreactivity
5,QVQLVESGGGLVQAGGSLRLSCAASGRTFPAYAMGWYRQAPGKERELVAAISSGTSTYADSVKGRFTISRDNAKNTVYLQMNSLKPEDTAVYYCAAGYDRVHSVAGYDYWGQGTQVTVSS,low polyreactivity
6,QVQLVESGGGLVQAGGSLRLSCAASGRTFPAYAMGWYRQAPGKERELVAAISYSGGRTRYADSVKGRFTISRDNAKNTVYLQMNSLKPEDTAVYYCNRVIPTQSLRDYYWGQGTQVTVSS,high polyreactivity
7,QVQLVESGGGLVQAGGSLRLSCAASGRTFPAYAMGWYRQAPGKERELVAGISKRGGSTYYADSVKGRFTISRDNAKNTVYFQMNSLKPEDTAVYYCNAEGHLFRYDSWGQGTQVTVSS,high polyreactivity
8,QVQLVESGGGLVQAGGSLRLSCAASGRTFPFNTMGWYRQAPGKERELVARISSGGSTYYADSVKGRFRISRDNAKNTVYLQMNSLKPEDTAVYYCATRYRYYSRLYDYWGQGTQVTVSS,high polyreactivity
9,QVQLVESGGGLVQAGGSLRLSCAASGRTFPGNAMGWYRQAPGKERELVAAIRWRGGSTYYADSVKGRFTISRDNAKNTVYLQMNSLKPEDTAVYYCATRALGHFDWGQGTQVTVSS,low polyreactivity
10,QVQLVESGGGLVQAGGSLRLSCAASGRTFPGYAMGWYRQAPGKERELVAGISYRGGSTYYADSVKGRITISRDIAKNSVYLQMISLKPEDTAVYFCARDYSRHKGDLWGQGTQVTVSS,low polyreactivity
11,QVQLVESGGGLVQAGGSLRLSCAASGRTFPIYAMGWYRQAPGKERELVAAITSYRRGTTYYADSVKGRFTISRDNAKNTVYLQMNSLKPEDTAVYYCTARTLRGGEYKYWGQGTPVTVSS,high polyreactivity
12,QVQLVESGGGLVQAGGSLRLSCAASGRTFPLYAMGWYRQAPGKERELVASITTDSSTYYADSVKGLFTISRDNAKYTVYLQMNSLKPEDTAVYYCAATTIPYPYTEFDYWGQGTQVTVSS,low polyreactivity
13,QVQLVESGGGLVQAGGSLRLSCAASGRTFPPYAMGWYRQAPGKERELVAAISRRAGTTYYADSVKGRFTISRDNAKNTVYLQMNSLKPEDTAVYYCAASDHYRWYVHRWEDPFYYWGQGTQVTVSS,low polyreactivity
14,QVQLVESGGGLVQAGGSLRLSCAASGRTFPRNAMGWYRQAPGKERELVAAITTSGGRTYYADSVKGRFTISRDNAKNTVYLQMNSLKPEDTAVYYCAVRYDTLAWYAFYYWGQGTQVTVSS,low polyreactivity
15,QVQLVESGGGLVQAGGSLRLSCAASGRTFPSYAKGLYRQAPGKERELVASISRGASTNYADSVMGRFTISRDNAKNCVFLQMNSLKPEDTAVYFWAANDSWVYTYYYWGQGTQVTVSS,high polyreactivity
16,QVQLVESGGGLVQAGGSLRLSCAASGRTFPSYAMGWYRQAPGKERELVAAISRSGGSTYYADSVKGRFTISRDNAKNTVYLQMNSLKPEDTAVYYCAAVSRVHFSYIYDYWGQGTQVTVSS,high polyreactivity
17,QVQLVESGGGLVQAGGSLRLSCAASGRTFPTNAMGWYIQAPGKERELVAVISRNSGRTYYADSVKGRFTISRDNAMNTVYFQMNSLKPEDTAVYYCAADKYTRAYYYWGQGTQVTVSS,high polyreactivity
18,QVQLVESGGGLVQAGGSLRLSCAASGRTFPTNAMGWYRQAPGKERELVARISTRGGSTYYADSVKGRFTISRDNAKNTVYLQMNSLKPEDTAVYYCARRYAVSNQASYYWGQGTQVTVSS,high polyreactivity
19,QVQLVESGGGLVQAGGSLRLSCAASGRTFPTYAMGWYRQAPGKERELVARITWNGGSTYYADSVKGRFTISRDNAKNTVYLQMNSLKPEDTAVYYCNAAQRIRYYPRYYYGYDYWGQGTQVTVSS,high polyreactivity
20,QVQLVESGGGLVQAGGSLRLSCAASGRTFPVNAMGWYRQAPGKERELVASITYSGGSTYYADSVKGRFTISRDNAKNTVYLQMNSLKPEDTAVYYCAADWYRSPYDYWGQGTQVTVSS,low polyreactivity
21,QVQLVESGGGLVQAGGSLRLSCAASGRTFPVNVMGWYRQAPGKERELVAAITWSGDSTYYADSVKGRFTISRDNAKNTVYLQMNSVKPEDTAVYYCATDYSGLRYDYWGQGTQVTVSS,low polyreactivity
